Where a chain is given by its changes, count along the chain named. Names may count otherwise.
B1: MBP-16E6(4C4S) F76A (natural protein)
chain: MHQKRTAMFQDPQERPRKLPQLCTELQTTIHDIILECVYCKQQLLRREVYDFAFRDLCIVYRDGNPYAVCDKCLKAYSKISEYRHYSYSLYGTTLEQQYNKPLSDLLIRCINCQKPLSPEEKQRHLDKKQRFHNIRGRWTGRCMSCSRSSRTRRETQL
notes: Mutant of m2; source: E. coli BL21(DE3), purified (MBPTrap, SEC); not shown: MBP, N-terminal, kept
B2: MBP-16E6(4C4S) R84E (natural protein)
chain: B1 chain with A76F, R84E
notes: as for B1
B3: MBP-16E6(4C4S) Y77A (natural protein)
chain: B1 chain with A76F, Y77A
notes: as for B1
B4: MBP-16E6(4C4S) Y86A (natural protein)
chain: B1 chain with A76F, Y86A
notes: as for B1
B5: MBP-16E6(4C4S) L57A (natural protein)
chain: B1 chain with L57A, A76F
B6: MBP-16E6(4C4S) S89A (natural protein)
chain: B1 chain with A76F, S89A
notes: as for B1
B7: MBP-16E6(4C4S) Y88A (natural protein)
chain: B1 chain with A76F, Y88A
notes: as for B1
B8: MBP-16E6(4C4S) R84A (natural protein)
chain: B1 chain with A76F, R84A
notes: as for B1
B9: MBP-16E6(4C4S) R62A (natural protein)
chain: B1 chain with R62A, A76F
notes: as for B1

molecular target: T1, full-length human E6AP (C-terminal TEV-6xHis-Avi) (human, UniProt Q05086 1-875, biotin on the Avi tag (BirA biotin-protein ligase) in the SPR experiments); assay: cell-based or functional assay; settings: not given
T1 sequence (Q05086 whole entry): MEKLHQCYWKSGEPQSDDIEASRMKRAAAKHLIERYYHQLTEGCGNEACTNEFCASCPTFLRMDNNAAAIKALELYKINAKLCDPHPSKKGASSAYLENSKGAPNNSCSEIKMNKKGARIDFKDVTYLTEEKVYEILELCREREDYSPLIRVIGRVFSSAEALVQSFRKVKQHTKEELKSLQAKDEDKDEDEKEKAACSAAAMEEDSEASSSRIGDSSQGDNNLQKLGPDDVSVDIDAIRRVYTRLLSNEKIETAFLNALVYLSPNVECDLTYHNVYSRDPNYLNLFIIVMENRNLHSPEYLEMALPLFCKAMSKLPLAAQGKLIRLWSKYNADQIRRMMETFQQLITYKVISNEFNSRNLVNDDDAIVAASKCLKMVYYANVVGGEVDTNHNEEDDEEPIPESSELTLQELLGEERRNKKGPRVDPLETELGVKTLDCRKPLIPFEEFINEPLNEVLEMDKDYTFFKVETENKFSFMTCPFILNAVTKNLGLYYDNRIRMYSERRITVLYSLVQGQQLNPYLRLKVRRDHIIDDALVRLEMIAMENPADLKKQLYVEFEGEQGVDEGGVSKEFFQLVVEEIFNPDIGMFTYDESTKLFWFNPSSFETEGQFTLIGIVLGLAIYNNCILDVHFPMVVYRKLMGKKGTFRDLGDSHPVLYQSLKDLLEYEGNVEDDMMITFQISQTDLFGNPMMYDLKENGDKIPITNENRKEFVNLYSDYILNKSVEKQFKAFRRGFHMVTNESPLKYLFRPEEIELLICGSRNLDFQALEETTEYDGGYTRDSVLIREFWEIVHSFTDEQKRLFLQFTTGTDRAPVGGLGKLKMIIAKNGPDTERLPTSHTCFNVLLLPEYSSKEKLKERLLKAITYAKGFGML

Q: With B1 as the binder, how does the “unmodified E6AP remaining at 30 min, E6AP autoubiquitination” value (from here on “unmodified E6AP remaining at 30 min”) read?
A: 82%

Q: What about the “unmodified p53 remaining at 30 min, in vitro ubiquitination of full-length p53” value (“unmodified p53 remaining at 30 min” below) of the same binder?
A: 59.5%

Q: Which “unmodified E6AP remaining after 30 min, E6AP autoubiquitination” value (“unmodified E6AP remaining after 30 min” for short) does the source give for B2 here?
A: 64.9%

Q: Which “unmodified E6AP remaining at 30 min” value does the source give for B3 here?
A: 21.6%

Q: And the “unmodified p53 remaining at 30 min” value?
A: 22.4%

Q: For B4, which “unmodified E6AP remaining at 30 min” value is on record?
A: 56.5%

Q: And the “unmodified p53 remaining at 30 min” value?
A: 44.2%

Q: Which “unmodified E6AP remaining after 30 min” value does the source give for B5 here?
A: 45.6%

Q: Which results are given for B6?
A: unmodified E6AP remaining at 30 min, E6AP autoubiquitination: 33.1%; unmodified p53 remaining at 30 min, in vitro ubiquitination of full-length p53: 57.3%

Q: B7 was tested. Which “unmodified E6AP remaining at 30 min” value did it give?
A: 21.2%

Q: What about the “unmodified p53 remaining at 30 min” value of the same binder?
A: 19.2%

Q: B8 was tested. Which “unmodified E6AP remaining after 30 min” value did it give?
A: 64.9%

Q: For B9, which “unmodified E6AP remaining after 30 min” value is on record?
A: 9.3%

molecular target: T1, full-length human E6AP (C-terminal …); assay: SPR; settings: both partners purified

Q: Which Kd does the source give for B1 here?
A: 8.5 nM

Q: For B2, which Kd is on record?
A: 195 nM

Q: B3 was tested. Which Kd did it give?
A: 0.742 nM

Q: Which Kd does the source give for B4 here?
A: 6.3 nM

Q: B6 was tested. Which Kd did it give?
A: 1.71 nM

Q: For B7, which Kd is on record?
A: 5.4 nM

Q: Which Kd does the source give for B8 here?
A: 34.4 nM

Q: With B9 as the binder, how does the Kd read?
A: 2.2 nM

Reference: publication PMC10902388 (Nature Communications, 2024)
